Laboratory results reported in publication PMC3406077 (2012).
Where a chain is given by its changes, count along the chain named. Names may count otherwise.

B1: wild-type full-length (C24-P237) pallilysin, O83732 H198A (protein)
chain: CFQHGHVPPRRIPPHDTFGALPTAALPSNARDTAAHPSDTADNTSGSSTTTDPRSHGNAPPAPVGGAAQTHTQPPVQTAMRIALWNRATHGEQGALQHLLAGLWIQTEISPNSGDIHPLLFFDREHAEITFSRASVQEIFLVDSAHTHRKTVSFLTRNTAISSIRRRLEVTFESAEVIHVRAVEDVARLKIGSTSMWDGQYTRYHAGPASAPSP
B2: wild-type full-length (C24-P237) pallilysin, O83732 H202A (protein)
chain: B1 chain with A175H, H179A
B3: wild-type full-length (C24-P237) pallilysin, O83732 E199A (protein)
chain: B1 chain with A175H, E176A

Molecular target: laminin isolated from Engelbreth-Holm-Swarm murine sarcoma basement membrane
Test: ELISA
Settings: chain shown with the change; 20 µg protein per well; laminin 0.5 µg per well; parent: est. 3.1; read off a plot

Compared with B1, B2 is lower in response (O.D. (492 nm)): 3.1 for the first, 3 for the second.

B3 was tested, and the response (O.D. (492 nm)) was 3.3.
